The values that follow come from publication PMC8775495.

Usually stoichiometry N stands for a count of units in the complex or per binding partner.

The target of assay [1] is WA20_H86K. Briefly: not stated; in solution; shown in Figure S1, whose legend was not shown.
The target in assay [2] is recombinant Agrocybe cylindracea galectin (Agrocybe cylindracea). Described as above.

Turning to WA20_H86K, the stoichiometry N in assay [1] was determined as 2.

On to “recombinant Agrocybe cylindracea galectin (natural protein)”, for which the stoichiometry N in assay [2] stood at 2.
